This passage reports expression_or_secretion results from publication PMC4697752.

The data set in a line: secreted mCherry-tagged MMP-9, microplate reader. Conditions: glycan lost; control: wild type.

B1: Matrix metalloproteinase-9 (MMP-9): mS38 (protein)
parent chain: MSLWQPLVLVLLVLGCCFAAPRQRQSTLVLFPGDLRTNLTDRQLAEEYLYRYGYTRVAEMRGESKSLGPALLLLQKQLSLPETGELDSATLKAMRTPRCGVPDLGRFQTFEGDLKWHHHNITYWIQNYSEDLPRAVIDDAFARAFALWSAVTPLTFTRVYSRDADIVIQFGVAEHGDGYPFDGKDGLLAHAFPPGPGIQGDAHFDDDELWSLGKGVVVPTRFGNADGAACHFPFIFEGRSYSACTTDGRSDGLPWCSTTANYDTDDRFGFCPSERLYTQDGNADGKPCQFPFIFQGQSYSACTTDGRSDGYRWCATTANYDRDKLFGFCPTRADSTVMGGNSAGELCVFPFTFLGKEYSTCTSEGRGDGRLWCATTSNFDSDKKWGFCPDQGYSLFLVAAHEFGHALGLDHSSVPEALMYPMYRFTEGPPLHKDDVNGIRHLYGPRPEPEPRPPTTTTPQPTAPPTVCPTGPPTVHPSERPTAGPTGPPSAGPTGPPTAGPSTATTVPLSPVDDACNVNIFDAIAEIGNQLYLFKDGKYWRFSEGRGSRPQGPFLIADKWPALPRKLDSVFEERLSKKLFFFSGRQVWVYTGASVLGPRRLDKLGLGADVAQVTGALRSGRGKMLLFSGRRLWRFDVKAQMVDPRSASEVDRMFPGVPLDTHDVFQYREKAYFCQDRFYWRVSSRSELNQVDQVGYVTYDILQCPED
In the case of B1, the expression_or_secretion entry is given as “no change”.

B2: Matrix metalloproteinase-9 (MMP-9): mS38/N120S (protein)
parent chain: B1 parent chain
As for B2, the expression_or_secretion entry is recorded as “decreases”.

B3: Matrix metalloproteinase-9 (MMP-9): N120S (protein)
parent chain: B1 parent chain
In the case of B3, the expression_or_secretion result is “decreases”.
